Assay results as given in the RNAGym collection of RNA variant scans (doi:10.1073/pnas.2313332121).

B1: TPR t1 (parent)
chain: GACCAAUCUGCCCUCAGAGCUCGAGAACAUCUUCGGAUGCAGAGGAGGCAGGCUUCGGUGGCGCGAUAGCGCCAACGUCCUCAACCUCCAAUGCAUCCCACCACAUGAUGAUGCCUGAAGAGCCUUGGUUUUUUG

Variants of: B1
Experiment: polymerase ribozyme fitness, log enrichment relative to wild type (log ratio); higher = more active; in vitro selection for triplet polymerase activity
How it was run: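 Genotype fitness is the logarithm of its enrichment divided by wild-type enrichment, using inverse-variance-weighted averages of replicates. That logarithm is base 2. Enrichment was measured by Illumina sequencing of input and output libraries from one triplicate in vitro selection round, with frozen incubation at −7 °C, on PCR-built, transcribed mutant libraries of each subunit of a heterodimeric triplet polymerase ribozyme, retaining genotypes with ≥10 input reads and ≥1 read per output.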

Compared with C15U G63A C79A U112G, A16U A43U U112C is higher in “polymerase ribozyme fitness (log ratio)” value: -5.66 for the first, -1.59 for the second.

Compared with A16U G93U C123A U133C, C15U G52A G58A C88U C115U is lower in “polymerase ribozyme fitness (log ratio)” value: -3.02 for the first, -4.34 for the second.

First: G17A G61U
Second: G17A G61A
The “polymerase ribozyme fitness (log ratio)” value of the first is lower: -2.6 for the first, -2.34 for the second.

Compared with A16G A74U, C15A A74G U81G U112C is lower in “polymerase ribozyme fitness (log ratio)” value: -1.36 for the first, -3.53 for the second.

First: A16U U21C G60A G71U U112G G113A
Second: A16U U59A C124A
The “polymerase ribozyme fitness (log ratio)” value of the first is lower: -5.57 for the first, 1.46 for the second.

First: A16C G23C G61C G63A U87A A105G G110C
Second: C15G U32C C49U U87G C123A
The “polymerase ribozyme fitness (log ratio)” value of the first is lower: -7.62 for the first, -3.12 for the second.

Going from C15G C85U to G17A C53U U54A C64U U92G, the “polymerase ribozyme fitness (log ratio)” value falls from -3.82 to -4.58.

Compared with C15G A18U C70U U116A G120U, A16U C79U C86A G120U G128A is lower in “polymerase ribozyme fitness (log ratio)” value: -1.19 for the first, -4.89 for the second.

Going from A16G U55A C102A A121U to C15A A46C G52U C56U C115G, the “polymerase ribozyme fitness (log ratio)” value falls from -0.698 to -6.86.

Going from A16C A50G to G17A A66G, the “polymerase ribozyme fitness (log ratio)” value falls from -2.32 to -4.85.

Compared with C15G G39U G48A A68U U112G, C15U G42C C76U U106A is higher in “polymerase ribozyme fitness (log ratio)” value: -7.39 for the first, -4.25 for the second.

First: G17A G61A C73U A75C
Second: C15U C76G G77C C123A
The “polymerase ribozyme fitness (log ratio)” value of the first is lower: -3.99 for the first, -2.59 for the second.

First: A16U G52A C72U
Second: C15U A66G G71A C98A G113U
The “polymerase ribozyme fitness (log ratio)” value of the first is higher: -1.31 for the first, -7.64 for the second.

A16C A46U G117A U133G and C15U C56G G60U U78G U92A are within 0.2 log units of each other in “polymerase ribozyme fitness (log ratio)” value: -6.47 for the first, -6.42 for the second.

First: A16U G47A C56G C86U C101A A121C
Second: A16U G60C G117C U125A
The “polymerase ribozyme fitness (log ratio)” value of the first is higher: -0.796 for the first, -4.08 for the second.

Going from C15G A18U to A16U G93A, the “polymerase ribozyme fitness (log ratio)” value rises from -3.36 to -2.35.

Compared with G17A C88U U133A, C15A A68G C97A A103G is lower in “polymerase ribozyme fitness (log ratio)” value: -3.95 for the first, -6.8 for the second.

First: U14G U129G
Second: C15U A95U
The “polymerase ribozyme fitness (log ratio)” value of the first is lower: -3.21 for the first, -2.49 for the second.

First: C15G C114U
Second: A16G C40A C49G
The “polymerase ribozyme fitness (log ratio)” value of the first is lower: -4.3 for the first, -3.32 for the second.

Going from C15A A46U G117U C124U U132C to A16G G44U G113C A119C G135A, the “polymerase ribozyme fitness (log ratio)” value falls from -0.364 to -6.45.

Compared with C15U G44U G71C, G17A G47U is lower in “polymerase ribozyme fitness (log ratio)” value: -2.64 for the first, -4.84 for the second.

Compared with A16U C28U C76G C82U U116A, C15U C56G A90C G93A G117U G127A is higher in “polymerase ribozyme fitness (log ratio)” value: -3.83 for the first, -3.28 for the second.

Compared with A16C U38G A46U C56A U59A U87G, C15A C88U C123U is higher in “polymerase ribozyme fitness (log ratio)” value: -4.62 for the first, -1.37 for the second.

Going from C15A G39C to C15A G39A, the “polymerase ribozyme fitness (log ratio)” value rises from -3.41 to -2.28.

First: C15G G61C A119G
Second: A16U G63U
The “polymerase ribozyme fitness (log ratio)” value of the first is higher: -0.591 for the first, -4.13 for the second.

Compared with A16G G93A U109G, C15U G71C C80G is lower in “polymerase ribozyme fitness (log ratio)” value: -5.43 for the first, -6.22 for the second.

First: A16U C73G
Second: G17A U55A G77U C115U U125A
The “polymerase ribozyme fitness (log ratio)” value of the first is lower: -2.59 for the first, -0.205 for the second.

First: C15A G19A A50C A74G C102A C104A A121U U125G
Second: A16U G52U G69A C76U U78C A121C
The “polymerase ribozyme fitness (log ratio)” value of the first is lower: -6.51 for the first, -3.43 for the second.

C15G A46G C56G and C15U C86U C102A are within 0.2 log units of each other in “polymerase ribozyme fitness (log ratio)” value: -4.02 for the first, -4.01 for the second.

Compared with C15U C79U A111U A121U, A16U G77A G117U is higher in “polymerase ribozyme fitness (log ratio)” value: -3.53 for the first, -3.13 for the second.

First: C15U G42C G71U
Second: C15U G63A C73U A90C G110U
The “polymerase ribozyme fitness (log ratio)” value of the first is higher: -3.24 for the first, -5.03 for the second.

Going from C15A G44A G45U G48U C62U C73U U78G to C15G A37U A66G C123A, the “polymerase ribozyme fitness (log ratio)” value rises from -5.47 to -3.27.

First: C15U G42U G44C C94U
Second: C15A G36A C72U U116A G120U
The “polymerase ribozyme fitness (log ratio)” value of the first is higher: -3.39 for the first, -4.34 for the second.

First: A16U G51U
Second: C15A G52A G61U C88A A95C U112C C124U
The “polymerase ribozyme fitness (log ratio)” value of the first is lower: -4.76 for the first, -1.64 for the second.

Going from C15U A29U A37U C62G C124G G135C to A16C C20G U59G U106A G113A, the “polymerase ribozyme fitness (log ratio)” value falls from -2.45 to -5.4.

Going from C15G G47U A83U A108U C114G U116G G117C to A16G G69U C73U C99U, the “polymerase ribozyme fitness (log ratio)” value rises from -6.68 to -2.5.

Compared with A16U G58A C72U, C15G U32C A43G G45U C89G is lower in “polymerase ribozyme fitness (log ratio)” value: -1.69 for the first, -4.49 for the second.

Going from C15A C72U G93U C114G to C15A C72G C104U, the “polymerase ribozyme fitness (log ratio)” value rises from -5.25 to -1.9.

Compared with C15U G23A A111U, C15A G63A is higher in “polymerase ribozyme fitness (log ratio)” value: -7.2 for the first, -2.56 for the second.

First: C15U C70U G71A
Second: C15U G61A C89A A111U
The “polymerase ribozyme fitness (log ratio)” value of the first is higher: -1.62 for the first, -6.53 for the second.

Compared with G17A G23U G61U C76U C114A, G17A G39U C49G U78C G117U is higher in “polymerase ribozyme fitness (log ratio)” value: -5.73 for the first, -5.4 for the second.

Going from C15G G44C G57U to C15A G48U A50G C97U, the “polymerase ribozyme fitness (log ratio)” value falls from -3.85 to -4.67.
